Laboratory results from US20170173105A1, “AUTOASSEMBLING PEPTIDES FOR THE TREATMENT OF PULMONARY LEAKAGE” (3-D MATRIX, LTD., priority 2014, published 2017).

Legend:
Format in all cases: physicochemical
[1] = pH and appearance of 2.5% peptide solutions after adding 0.1 N NaOH
Protocol: To adjust the pH level of the peptide solutions by way of example, 0.1 N NaOH was added to 2 mL of 2.5% peptide solutions and their pH and appearance were measured.

[2] = Rheological properties of pH adjusted peptide solutions and hydrogels (stress/frequency sweep); settings: at pH 3.4 (IEIK13 adjusted to 3.7); KLD12 1%, IEIK13 1%, PuraMatrix 1% and 2.5%
Protocol: Based on the visual observation of the effect of pH level on the properties of the peptide solutions, the effect on the rheological properties of the peptide solutions after adjusting their pH level to 3.4 (PuraMatrix® and KLD12) or 3.7 (IEIK13) was evaluated. If the pH levels of peptide solutions are higher than 3.5 (PuraMatrix® and KLD12) or 3.7 (IEIK13), the peptide solution began phase separation becoming cloudy. The rheological properties of PuraMatrix®, KLD12 and IEIK13 solutions were higher at pH 3.4. The results are shown in FIG. 2 for KLD12 1%, FIG. 3 for IEIK13 1%, and FIGS. 4-5 for PuraMatrix® 1% and 2.5%, respectively. Stress sweep tests were performed at 10 rad/s. Frequency sweep tests were performed at 1 Pa.
Based on the results of the effect on the rheological properties of the peptide solutions after adjusting their pH level to 3.4 (PuraMatrix® and KLD12) or 3.7 (IEIK13), the effect on the rheological properties of the peptide solutions at various pH levels was evaluated. […] The rheological properties of peptides were evaluated at various concentrations using a rheometer (DHR-1, TA Instruments) with 20 mm plates. The results are shown in FIG. 6A for PuraMatrix® 2.5% solution and FIG. 6B for IEIK13 1.5% solution, respectively. Frequency sweep tests were performed from 1 rad/sec to 10 rad/sec at 1 Pa and the storage modulus at 1 rad/sec was selected for data.
Based on the results of the effect on the rheological properties of the peptide solutions after adjusting their pH level, the effect on the rheological properties of the peptide hydrogels at various pH after DMEM treatment was evaluated and compared to the effect on the rheological properties of the peptide solutions at various pH before DMEM treatment. […] The results are shown in FIGS. 7A-7B for PuraMatrix® and FIGS. 8A-8B for IEIK (SEQ ID NO: 5), respectively. Frequency sweep tests were performed from 1 rad/sec to 10 rad/sec at 1 Pa and the storage modulus at 1 rad/sec was selected for data.

[3] = Appearance of 1.5% peptide solutions with various salts at room temperature; settings: for Appearance: KLD12 solution, room temperature
Protocol: The effect of salt ionic strength level on the properties of peptide solutions was evaluated to identify optimized salt ionic strength levels for the peptides as described herein. Increasing the salt ionic strength level of PuraMatrix® and other peptides may generally improve its function and mechanical strength for various clinical applications. To adjust the salt ionic strength of the peptide solutions by way of example, various salt buffer solutions including NaCl, KCl, MgCl2, CaCl2 and DPBS (10×) were added to 2 mL of 1.5% peptide solutions.

[4] = 0.1 N NaOH 0 μL/mL added in 2.5% solution, conc. 2.5%
[5] = 0.1 N NaOH 50 μL/mL added in 2.5% solution, conc. 2.38%
[6] = 0.1 N NaOH 100 μL/mL added in 2.5% solution, conc. 2.27%
[7] = 0.1 N NaOH 300 μL/mL added in 2.5% solution, conc. 1.92%
[8] = pH increase up to approximately 3.5 or less with 0.1 N NaOH, 2.5% solutions

Lys-Leu-Asp-Leu-Lys-Leu-Asp-Leu-Lys-Leu-Asp-Leu (Ac-KLDLKLDLKLDL-NH2) [KLD12]
Appearance [1, 4]: Clear, thick gel | Peptide solution pH [1, 4]: 2.1 | Appearance [1, 5]: Clear, thick gel | Peptide solution pH [1, 5]: 2.4 | Appearance [1, 6]: Clear, thick gel | Peptide solution pH [1, 6]: 2.6 | Peptide solution pH ([1]; 0.1 N NaOH 150 μL/mL added in 2.5% solution, conc. 2.17%): 2.9 | Peptide solution pH ([1]; 0.1 N NaOH 200 μL/mL added in 2.5% solution, conc. 2.08%): 3.3 | Peptide solution pH ([1]; 0.1 N NaOH 225 μL/mL added in 2.5% solution, conc. 2.04%): 3.6 | Peptide solution pH ([1]; 0.1 N NaOH 250 μL/mL added in 2.5% solution, conc. 2.0%): 4.0 | Appearance [1, 7]: Cloudy, brittle gel | Peptide solution pH [1, 7]: 4.7 | Peptide solution pH ([1]; 0.1 N NaOH 350 μL/mL added in 2.5% solution, conc. 1.85%): 5.2 | Peptide solution pH ([1]; last line per peptide, NaOH volume and conc. not given): 7.0 | apparent stiffness on pH increase [1, 8]: increased | color of solution on pH increase [1, 8]: did not change the clear color | rheological properties of solutions after pH adjustment [2]: higher | Appearance ([3]; CaCl2 0 M, ionic strength 0 M, conc. 1.5%): Clear, thick gel | Appearance ([3]; CaCl2 0.05 M, ionic strength 0.15 M, conc. 1.48%): Clear, thick, stiffer gel | Appearance ([3]; CaCl2 0.067 M, ionic strength 0.2 M, conc. 1.47%): Clear, thick, stiffer gel | Appearance ([3]; CaCl2 0.083 M, ionic strength 0.25 M, conc. 1.46%): Clear, thick, stiffer gel | Appearance ([3]; CaCl2 0.1 M, ionic strength 0.3 M, conc. 1.45%): Clear, thick, stiffer gel | Appearance ([3]; CaCl2 0.117 M, ionic strength 0.35 M, conc. 1.44%): Clear, thick, stiffer gel | Appearance ([3]; CaCl2 0.133 M, ionic strength 0.4 M, conc. 1.43%): Slightly cloudy, thick, stiffer gel | Appearance ([3]; CaCl2 0.15 M, ionic strength 0.45 M, conc. 1.43%): Slightly cloudy, brittle gel | Appearance ([3]; CaCl2 0.167 M, ionic strength 0.5 M, conc. 1.42%): Cloudy, phase-separated | Appearance ([3]; KCl 0 M, ionic strength 0 M, conc. 1.5%): Clear, thick gel | Appearance ([3]; KCl 0.05 M, ionic strength 0.5 M, conc. 1.48%): Clear, thick, stiffer gel | Appearance ([3]; KCl 0.1 M, ionic strength 0.1 M, conc. 1.45%): Clear, thick, stiffer gel | Appearance ([3]; KCl 0.15 M, ionic strength 0.15 M, conc. 1.43%): Clear, thick, stiffer gel | Appearance ([3]; KCl 0.2 M, ionic strength 0.2 M, conc. 1.4%): Clear, thick, stiffer gel | Appearance ([3]; KCl 0.25 M, ionic strength 0.25 M, conc. 1.38%): Clear, thick, stiffer gel | Appearance ([3]; KCl 0.3 M, ionic strength 0.3 M, conc. 1.35%): Slightly cloudy, thick, stiffer gel | Appearance ([3]; KCl 0.35 M, ionic strength 0.35 M, conc. 1.32%): Slightly cloudy, brittle gel | Appearance ([3]; KCl 0.4 M, ionic strength 0.4 M, conc. 1.3%): Cloudy, phase-separated | Appearance ([3]; MgCl2 0 M, ionic strength 0 M, conc. 1.5%): Clear, thick gel | Appearance ([3]; MgCl2 0.05 M, ionic strength 0.15 M, conc. 1.48%): Clear, thick, stiffer gel | Appearance ([3]; MgCl2 0.067 M, ionic strength 0.2 M, conc. 1.47%): Clear, thick, stiffer gel | Appearance ([3]; MgCl2 0.083 M, ionic strength 0.25 M, conc. 1.46%): Clear, thick, stiffer gel | Appearance ([3]; MgCl2 0.1 M, ionic strength 0.3 M, conc. 1.45%): Clear, thick, stiffer gel | Appearance ([3]; MgCl2 0.117 M, ionic strength 0.35 M, conc. 1.44%): Clear, thick, stiffer gel | Appearance ([3]; MgCl2 0.133 M, ionic strength 0.4 M, conc. 1.43%): Slightly cloudy, thick, stiffer gel | Appearance ([3]; MgCl2 0.15 M, ionic strength 0.45 M, conc. 1.43%): Slightly cloudy, brittle gel | Appearance ([3]; MgCl2 0.167 M, ionic strength 0.5 M, conc. 1.42%): Cloudy, phase-separated | Appearance ([3]; NaCl 0 M, ionic strength 0 M, conc. 1.5%): Clear, thick gel | Appearance ([3]; NaCl 0.05 M, ionic strength 0.5 M, conc. 1.48%): Clear, thick, stiffer gel | Appearance ([3]; NaCl 0.1 M, ionic strength 0.1 M, conc. 1.45%): Clear, thick, stiffer gel | Appearance ([3]; NaCl 0.15 M, ionic strength 0.15 M, conc. 1.43%): Clear, thick, stiffer gel | Appearance ([3]; NaCl 0.2 M, ionic strength 0.2 M, conc. 1.4%): Clear, thick, stiffer gel | Appearance ([3]; NaCl 0.25 M, ionic strength 0.25 M, conc. 1.38%): Clear, thick, stiffer gel | Appearance ([3]; NaCl 0.3 M, ionic strength 0.3 M, conc. 1.35%): Slightly cloudy, thick, stiffer gel | Appearance ([3]; NaCl 0.35 M, ionic strength 0.35 M, conc. 1.32%): Slightly cloudy, brittle gel | Appearance ([3]; NaCl 0.4 M, ionic strength 0.4 M, conc. 1.3%): Cloudy, phase-separated | apparent stiffness on salt ionic strength increase ([3]; up to the ionic strength at which solutions stay clear): increased
